Data set [1] in a line: STED immunofluorescence, THP-1-derived macrophages. The following applies: glycan lost; control: overexpressed WT hPANX1.
Data set [2] concerns the molecule itself. Briefly: cryo-EM structure; single-particle cryo-EM of purified hPANX1 at about 8 mg/ml in 20 mM Hepes pH 7.4, 150 mM NaCl, 0.1% digitonin; C7 symmetry; 3.15 Å.

B1: human Pannexin1 (hPANX1): N255Q (protein)
parent chain: MAIAQLATEYVFSDFLLKEPTEPKFKGLRLELAVDKMVTCIAVGLPLLLISLAFAQEISIGTQISCFSPSSFSWRQAAFVDSYCWAAVQQKNSLQSESGNLPLWLHKFFPYILLLFAILLYLPPLFWRFAAAPHICSDLKFIMEELDKVYNRAIKAAKSARDLDMRDGACSVPGVTENLGQSLWEVSESHFKYPIVEQYLKTKKNSNNLIIKYISCRLLTLIIILLACIYLGYYFSLSSLSDEFVCSIKSGILRNDSTVPDQFQCKLIAVGIFQLLSVINLVVYVLLAPVVVYTLFVPFRQKTDVLKVYEILPTFDVLHFKSEGYNDLSLYNLFLEENISEVKSYKCLKVLENIKSSGQGIDPMLLLTNLGMIKMDVVDGKTPMSAEMREEQGNQTAELQGMNIDSETKANNGEKNARQRLLDSSC
For the protein B1, in data set [1], the localisation_or_trafficking entry is given as “changes”.

B2: full-length human Pannexin1 with a Strep-tag II inserted after V172 (natural protein, UniProt Q96RD7 1-426, looked up)
chain: MAIAQLATEYVFSDFLLKEPTEPKFKGLRLELAVDKMVTCIAVGLPLLLISLAFAQEISIGTQISCFSPSSFSWRQAAFVDSYCWAAVQQKNSLQSESGNLPLWLHKFFPYILLLFAILLYLPPLFWRFAAAPHICSDLKFIMEELDKVYNRAIKAAKSARDLDMRDGACSVPGVTENLGQSLWEVSESHFKYPIVEQYLKTKKNSNNLIIKYISCRLLTLIIILLACIYLGYYFSLSSLSDEFVCSIKSGILRNDSTVPDQFQCKLIAVGIFQLLSVINLVVYVLLAPVVVYTLFVPFRQKTDVLKVYEILPTFDVLHFKSEGYNDLSLYNLFLEENISEVKSYKCLKVLENIKSSGQGIDPMLLLTNLGMIKMDVVDGKTPMSAEMREEQGNQTAELQGMNIDSETKANNGEKNARQRLLDSSC
modifications: N-linked glycan at N255 (two N-acetylglucosamine and eight mannose)
notes: Pannexin1 (PANX1), Homo sapiens, full length; Homo-heptamer; Met1 is absent from the deposited hPANX1-MD model; The termini and the intracellular linker of the model rest on a locally sharpened map and MD flexible fitting; also called hPANX1; PANX1
One may read the stoichiometry N as the number of molecules, sites or subunits per partner or assembly. On to B2, for which the “stoichiometry N” value in data set [2] turned out to be 7.

The record behind these values is paper PMC8096850, “Structure of the full-length human Pannexin1 channel and insights into its role in pyroptosis” (Cell Discovery, 2021).
